B1: Recombinant human BMP6 (mammalian expressed, glycosylated), P22004 375-513 (ligand)
chain: SASSRRRQQSRNRSTQSQDVARVSSASDYNSSELKTACRKHELYVSFQDLGWQDWIIAPKGYAANYCDGECSFPLNAHMNATNHAIVQTLVHLMNPEYVPKPCCAPTKLNAISVLYFDDNSNVILKKYRNMVVRACGCH
modifications: here or on the partner: N-linked glycosylation at Asn454 (prehelix loop)
B2: Deglycosylated BMP6 (BMP6 treated with PNGaseF) (ligand, human, UniProt P22004 375-513, looked up)
chain: B1 chain
modifications: glycosylation completely removed with PNGaseF
notes: mature domain of human BMP6; also called dgBMP6; source: bought: RnD (Cat. No. 507-BP), CHO; deglycosylated with rapid PNGase F (15 min at 50 °C)
B3: Recombinant human BMP6, mammalian expressed (glycosylated) (ligand, UniProt P22004 375-513, looked up)
chain: B1 chain
modifications: N-linked glycosylation at Asn454 (prehelical loop)
notes: mature domain of human BMP6; residues 410 to 513 resolved in the maps (82.3% of mature domain); Dimer held together by a cystine knot; also called glycosylated BMP6; source: bought: RnD (Cat. No. 507-BP), produced from CHO cells
B4: Deglycosylated BMP6 (BMP6 treated with PNGaseF) (ligand, human, UniProt P22004 375-513, looked up)
chain: B1 chain
notes: BMP6, human, mature domain of the precursor, N-linked glycosylation completely removed with PNGaseF; disulfide-linked dimer; Same protein as Dm1 after PNGaseF treatment; also called dgBMP6; PNGaseF treated BMP6; source: bought: RnD (Cat. No. 507-BP), produced from CHO cells; deglycosylated with rapid PNGase F (New England Biolabs), 15 min at 50 C
B5: Recombinant human BMP6, mammalian expressed (glycosylated), P22004 375-513 (ligand)
chain: B1 chain
modifications: here or on the partner: N-linked glycosylation at Asn454 (prehelical loop)
B6: Recombinant human BMP6 (mammalian expressed, glycosylated) (ligand, UniProt P22004 375-513, looked up)
chain: B1 chain
modifications: N-linked glycosylation at Asn454 (prehelix loop)
notes: BMP6, human, mature domain of the precursor (residues 410 to 513 resolved in the cryoEM maps, 82.3% of the mature domain); disulfide-linked dimer; also called Bone Morphogenetic Protein 6; source: bought: RnD (Cat. No. 507-BP), produced from CHO cells
B7: ActRIIB2-Fc (trap with two ActRIIB extracellular domains) (Fc fusion, human, UniProt Q13705-1 19-133, looked up)
chain: SGRGEAETRECIYYNANWELERTNQSGLERCEGEQDKRLHCYASWRNSSGTIELVKKGCWLDDFNCYDRQECVATEENPQVYFCCCEGNFCNERFTHLPEAGGPEVTYEPPPTAP
notes: signal peptide in the construct; ActRIIB (activin receptor type IIB), human, extracellular domain, residues 1 to 133, fused to an IgG1 Fc domain; The limits 1 to 133 are told for the ActRIIB-Fc fusions of this study in general; not shown: Fc (IgG1), C-terminal, kept
B8: ActRIIB1-Fc (trap with a single ActRIIB extracellular domain) (Fc fusion)
chain: B7 chain
modifications: Printed range is 1-133; signal peptide 1-18 is removed. The deposited 9N4K/9MIR chains run to T134 before the linker. Human IgG1 Fc carrier is left out; the second Fc arm carries no receptor. …
B9: ActRIIB2-Fc (Fc fusion, human, UniProt Q13705-1 19-133, looked up)
chain: B7 chain
notes: signal peptide in the construct; extracellular domain of human ActRIIB, residues 1 to 133; also called trap containing two ActRIIB ECDs; source: CHO cells, purified, as previously described (17, 19); not shown: Fc (IgG1), C-terminal, kept

Columns and labels:
[1] = target: ActRIIB1-Fc (trap with a single ActRIIB extracellular domain) (human); assay: SPR; Cytiva T-200; trap captured through its Fc on a CM4 chip with immobilised goat antihuman Fc-specific IgG (about 3,000 RU); ligand flowed, five-step twofold dilution from 5 nM; 10 mM HEPES pH 7.4, 350 mM NaCl, 3.4 mM EDTA, 0.005% P-20; 25 C; 300 s association and dissociation, 30 uL/min; 1:1 fit with mass transport limitation; triplicate
ALK2-ActRIIB-Fc = target: T1, ALK2-ActRIIB-Fc (human, UniProt Q04771 21-123; Q13705 19-133); assay: SPR; traps captured by goat antihuman Fc IgG on a CM4 chip; ligand flowed, five-step twofold dilution from 5 nM; HBS-EP+ (10 mM HEPES pH 7.4, 350 mM NaCl, 3.4 mM EDTA, 0.005% P-20), 25 °C; 1:1 fit with mass transport limitation; conditions: both partners purified
T1 construct: signal peptide in the construct; extracellular domain of human ActRIIB, residues 1 to 133; also called heterodimeric trap; ActRIIB-ALK2; source: CHO cells, cotransfected, purified (MabSelect SuRe protein A with pH gradient, SEC); not shown: Fc (IgG1), C-terminal, kept; copies: 1 + 1

ALK3-ActRIIB-Fc = target: T2, ALK3-ActRIIB-Fc (human, UniProt P36894 24-152; Q13705 19-133); assay: as above; conditions: both partners purified
T2 construct: signal peptide in the construct; extracellular domain of human ActRIIB, residues 1 to 133; also called heterodimeric trap; ActRIIB-ALK3; source: CHO cells, cotransfected, purified (MabSelect SuRe protein A, SEC); not shown: Fc (IgG1), C-terminal, kept; copies: 1 + 1

[2] = target: T3, ALK2-ActRIIB-Fc (heterodimeric trap) (human, UniProt Q04771 21-123; Q13705 19-133); assay: SPR; Cytiva T-200; trap captured through its Fc on a CM4 chip with immobilised goat antihuman Fc-specific IgG (about 3,000 RU); ligand flowed, five-step twofold dilution from 5 nM; 10 mM HEPES pH 7.4, 350 mM NaCl, 3.4 mM EDTA, 0.005% P-20; 25 C; 300 s association and dissociation, 30 uL/min; 1:1 fit with mass transport limitation; triplicate; conditions: both partners purified
T3 construct: signal peptide in the construct; ActRIIB, human, extracellular domain, residues 1 to 133, fused to an IgG1 Fc domain; also called ALK2-IIB-Fc; ActRIIB-ALK2; source: SEC Superdex 200 increase; not shown: Fc (IgG1), C-terminal, kept; copies: 1 + 1

[3] = target: T4, ALK3-ActRIIB-Fc (heterodimeric trap) (human, UniProt P36894 24-152; Q13705 19-133); assay: as above; conditions: both partners purified
T4 construct: signal peptide in the construct; ActRIIB, human, extracellular domain, residues 1 to 133, fused to an IgG1 Fc domain; also called ALK3-IIB-Fc; ActRIIB-ALK3; source: SEC Superdex 200 increase; not shown: Fc (IgG1), C-terminal, kept; copies: 1 + 1

ActRIIB1-Fc (human) = assay: SPR; traps captured by goat antihuman Fc IgG on a CM4 chip; ligand flowed, five-step twofold dilution from 5 nM; HBS-EP+ (10 mM HEPES pH 7.4, 350 mM NaCl, 3.4 mM EDTA, 0.005% P-20), 25 °C; 1:1 fit with mass transport limitation
[4] = target: B6; assay: SPR; Cytiva T-200; trap captured through its Fc on a CM4 chip with immobilised goat antihuman Fc-specific IgG (about 3,000 RU); ligand flowed, five-step twofold dilution from 5 nM; 10 mM HEPES pH 7.4, 350 mM NaCl, 3.4 mM EDTA, 0.005% P-20; 25 C; 300 s association and dissociation, 30 uL/min; 1:1 fit with mass transport limitation; triplicate; conditions: both partners purified
[5] = target: B4; assay: as above; conditions: both partners purified
[6] = target: B3; assay: SPR; traps captured by goat antihuman Fc IgG on a CM4 chip; ligand flowed, five-step twofold dilution from 5 nM; HBS-EP+ (10 mM HEPES pH 7.4, 350 mM NaCl, 3.4 mM EDTA, 0.005% P-20), 25 °C; 1:1 fit with mass transport limitation; conditions: both partners purified

T4 sequence (P36894 24-152, one chain of several): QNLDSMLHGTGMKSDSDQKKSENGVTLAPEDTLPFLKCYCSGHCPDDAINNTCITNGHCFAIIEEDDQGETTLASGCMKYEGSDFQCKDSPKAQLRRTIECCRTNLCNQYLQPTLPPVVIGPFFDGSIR
T3 sequence (Q04771 21-123, one chain of several): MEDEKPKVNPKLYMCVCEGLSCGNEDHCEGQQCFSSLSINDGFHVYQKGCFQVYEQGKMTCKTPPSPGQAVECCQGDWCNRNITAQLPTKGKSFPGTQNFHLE
T2 sequence (P36894 24-152, one chain of several): as the sequence (P36894 24-152, one chain of several) above
T1 sequence (Q04771 21-123, one chain of several): as the sequence (Q04771 21-123, one chain of several) above

Binder: B1
- koff [1]: 0.00234 s⁻¹
- kon [1]: 2.16e+07 M⁻¹ s⁻¹

Binder: B2
- Kd (ALK2-ActRIIB-Fc): 0.127 nM
- Kd (ALK3-ActRIIB-Fc): 0.0351 nM

Binder: B3
- Kd (ALK2-ActRIIB-Fc): 0.0366 nM
- Kd (ALK3-ActRIIB-Fc): 0.03 nM

Binder: B4
- koff [2]: 0.00147 s⁻¹
- kon [2]: 1.16e+07 M⁻¹ s⁻¹
- koff [3]: 0.000432 s⁻¹
- kon [3]: 1.23e+07 M⁻¹ s⁻¹

Binder: B5
- Kd (ActRIIB1-Fc (human)): 0.108 nM

Binder: B6
- koff [2]: 0.000528 s⁻¹
- kon [2]: 1.43e+07 M⁻¹ s⁻¹
- koff [3]: 0.000423 s⁻¹
- kon [3]: 1.39e+07 M⁻¹ s⁻¹

Binder: B7
- koff [4]: 0.00119 s⁻¹
- kon [4]: 3.17e+07 M⁻¹ s⁻¹
- Kd [5]: 0.0489 ± 0.006 nM
- koff [5]: 0.00152 s⁻¹
- kon [5]: 3.12e+07 M⁻¹ s⁻¹

Binder: B8
- Kd [5]: 0.11 ± 0.0148 nM
- koff [5]: 0.00186 s⁻¹
- kon [5]: 1.7e+07 M⁻¹ s⁻¹

Binder: B9
- Kd [6]: 0.0421 nM

— paper PMC12415261 (Proceedings of the National Academy of Sciences of the …, 2025)
